Laboratory results from the supplement of paper PMC11136658.

Tested on: peptide library, one residue held at a place counted from the Y acceptor
Test: relative phosphorylation of the sub-library (ratio to the mean residue at this position); higher = residue favoured
Method in brief: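 Within 384-well plates, purified recombinant kinases phosphorylated biotinylated Tyr-centred peptide library mixtures over 90 min using 50 μM ATP spiked with γ-32P-ATP; each mixture fixed one residue at one position from −5 to +5. Streptavidin membrane capture, rinsing, phosphorimaging and ImageQuant gave the intensities. These were normalized per position to the sum of the 18 randomized residues (16 for the Ser/Thr-free library) and multiplied by that number.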

Sequence of ALK, construct: aa1058-end, human (Q9UM73 1058-1620, looked up): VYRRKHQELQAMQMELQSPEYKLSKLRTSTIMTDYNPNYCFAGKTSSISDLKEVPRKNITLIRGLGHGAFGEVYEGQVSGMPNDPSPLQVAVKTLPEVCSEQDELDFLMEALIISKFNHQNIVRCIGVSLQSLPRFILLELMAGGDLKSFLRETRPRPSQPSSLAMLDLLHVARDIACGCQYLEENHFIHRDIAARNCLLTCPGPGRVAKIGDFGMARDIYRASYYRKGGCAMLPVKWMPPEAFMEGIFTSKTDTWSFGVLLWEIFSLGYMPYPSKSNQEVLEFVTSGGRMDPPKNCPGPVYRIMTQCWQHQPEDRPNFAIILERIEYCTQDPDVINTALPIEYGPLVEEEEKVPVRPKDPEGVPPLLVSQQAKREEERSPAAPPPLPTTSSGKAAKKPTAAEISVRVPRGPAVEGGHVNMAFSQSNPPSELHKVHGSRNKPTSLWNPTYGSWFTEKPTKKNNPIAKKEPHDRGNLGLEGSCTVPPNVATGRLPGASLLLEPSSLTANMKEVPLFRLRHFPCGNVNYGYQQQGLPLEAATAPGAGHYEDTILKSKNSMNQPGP
Sequence of ABL1, construct: aa27-end, human (P00519 27-1130, looked up): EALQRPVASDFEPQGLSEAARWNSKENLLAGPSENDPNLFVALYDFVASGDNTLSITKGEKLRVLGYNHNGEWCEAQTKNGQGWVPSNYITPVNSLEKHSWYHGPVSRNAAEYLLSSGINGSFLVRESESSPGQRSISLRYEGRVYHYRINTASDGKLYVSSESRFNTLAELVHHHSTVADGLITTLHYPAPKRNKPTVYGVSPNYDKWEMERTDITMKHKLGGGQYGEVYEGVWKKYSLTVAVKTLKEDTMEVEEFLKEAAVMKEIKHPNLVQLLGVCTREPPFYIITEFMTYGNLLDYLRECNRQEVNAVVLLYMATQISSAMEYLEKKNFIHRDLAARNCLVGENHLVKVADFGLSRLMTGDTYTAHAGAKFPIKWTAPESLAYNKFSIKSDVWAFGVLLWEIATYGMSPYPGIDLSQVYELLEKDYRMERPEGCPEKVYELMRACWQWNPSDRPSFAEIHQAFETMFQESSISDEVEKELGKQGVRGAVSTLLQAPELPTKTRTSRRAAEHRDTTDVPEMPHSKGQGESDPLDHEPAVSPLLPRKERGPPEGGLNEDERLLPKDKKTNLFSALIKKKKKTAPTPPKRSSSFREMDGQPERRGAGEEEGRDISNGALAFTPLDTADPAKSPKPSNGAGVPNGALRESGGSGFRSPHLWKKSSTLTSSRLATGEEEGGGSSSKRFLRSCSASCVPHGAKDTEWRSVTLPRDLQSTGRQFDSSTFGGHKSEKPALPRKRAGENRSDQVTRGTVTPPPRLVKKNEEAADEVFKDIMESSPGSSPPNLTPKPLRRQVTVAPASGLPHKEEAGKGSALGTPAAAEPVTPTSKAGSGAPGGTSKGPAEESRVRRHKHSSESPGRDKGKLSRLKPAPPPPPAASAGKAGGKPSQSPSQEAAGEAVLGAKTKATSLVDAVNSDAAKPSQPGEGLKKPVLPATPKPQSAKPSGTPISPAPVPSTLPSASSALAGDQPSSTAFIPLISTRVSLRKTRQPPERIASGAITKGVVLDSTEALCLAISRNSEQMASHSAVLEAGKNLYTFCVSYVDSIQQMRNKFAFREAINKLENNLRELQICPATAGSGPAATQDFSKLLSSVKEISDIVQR

ABL1, construct: aa27-end, human (from UniProt P00519)
relative phosphorylation
Details	at +1	at +2	at +3	at +4	at +5	at -1	at -2	at -3	at -4	at -5
A fixed	3.14	1.24	0.892	0.948	1.12	0.702	1.12	1.02	1.24	1.16
D fixed	0.625	0.513	0.23	0.579	0.651	0.886	0.85	1.21	1.2	1.03
E fixed	0.874	0.93	0.159	0.615	0.611	1.2	1.24	1.91	1.52	0.963
F fixed	0.86	0.975	1.28	1.16	0.705	0.795	0.615	0.796	0.702	0.817
G fixed	1.36	0.628	1.36	1.34	1.27	0.502	1.27	1.16	1.36	1.24
H fixed	1.17	0.749	0.814	1.17	1.1	1.63	0.935	0.919	0.893	1.07
I fixed	0.406	1.05	1.14	0.772	0.681	3.33	0.883	0.491	0.797	0.806
K fixed	0.586	0.815	0.403	1.17	1.17	0.402	0.87	0.79	0.874	1.08
L fixed	0.815	0.961	1.49	0.918	0.987	1.54	1.01	0.885	0.985	0.936
M fixed	1.15	0.954	0.883	1.19	1.09	1.06	0.779	0.928	0.884	0.965
N fixed	0.45	1.01	0.619	0.897	0.922	0.549	0.96	1.18	0.903	1.09
P fixed	0.184	1.02	2.74	0.832	1.38	0.541	1.29	1.14	1.22	1.2
Q fixed	1.13	0.901	0.419	1.09	0.947	0.745	1.08	0.973	1.18	1.07
R fixed	0.969	1.22	0.633	1.36	1.36	0.406	0.825	0.813	0.953	1.19
S fixed	1.16	1.32	1.17	1.01	1.06	0.472	1.12	1.06	0.86	1.01
T fixed	0.843	1.37	1.28	0.939	1.19	0.908	1.19	1.05	0.796	0.97
V fixed	1.03	1.39	1.04	0.925	0.996	1.81	1.4	0.873	1.01	0.873
W fixed	1.26	0.958	1.44	1.08	0.743	0.516	0.567	0.799	0.622	0.509
pThr fixed	0.766	0.921	0.395	0.391	0.458	0.785	0.973	1.51	1.11	0.913
pTyr fixed	1.47	1.77	0.465	0.55	0.607	3.35	1.39	2.36	1.66	1.18

ALK, construct: aa1058-end, human (from UniProt Q9UM73)
relative phosphorylation
Details	at +1	at +2	at +3	at +4	at +5	at -1	at -2	at -3	at -4	at -5
A fixed	1.39	0.79	0.525	0.758	0.82	0.976	1.09	0.931	1.23	1.06
D fixed	0.468	0.286	0.207	0.721	0.44	1.42	0.92	1.09	1.01	1.01
E fixed	1.42	0.713	0.206	0.871	0.407	0.955	1.02	1.42	1.22	0.887
F fixed	1.04	1.16	1.55	1.34	2.19	1.08	0.732	1.05	1.02	1
G fixed	0.495	0.403	0.445	0.805	0.774	0.349	1.06	1.06	1.27	1.15
H fixed	1.15	0.762	1.14	1.17	0.806	1.02	1.18	0.992	0.88	0.985
I fixed	1.59	1.17	3.08	0.994	1.43	2.22	1.08	0.683	0.817	0.925
K fixed	0.398	0.982	0.401	0.984	0.661	0.353	0.998	1.04	0.956	1.15
L fixed	1.24	1.44	1.22	0.906	1.55	1.64	0.915	0.81	0.954	0.983
M fixed	2.11	1.42	1.78	1.16	1.38	0.903	0.871	0.901	0.918	0.977
N fixed	0.472	0.837	0.496	0.855	0.697	1.31	0.952	1.2	0.882	1.09
P fixed	0.296	0.934	0.476	0.939	1.54	1.06	1.11	1.1	1.29	1.21
Q fixed	1.15	0.852	0.414	1.11	0.601	0.669	1.04	0.908	1.09	0.946
R fixed	0.528	1.46	0.667	1.31	0.879	0.346	1.19	1.19	1.31	1.21
S fixed	0.929	0.776	0.526	0.873	0.706	0.64	1.13	1.05	0.776	0.857
T fixed	0.947	0.682	0.854	0.842	0.974	0.91	1.06	0.983	0.644	0.76
V fixed	1.43	1.06	2.3	0.998	0.968	1.53	0.929	0.733	0.803	0.819
W fixed	0.939	2.26	1.72	1.36	1.18	0.613	0.72	0.865	0.927	0.963
pThr fixed	1.14	0.414	0.169	0.406	0.326	0.79	0.836	0.834	0.909	0.952
pTyr fixed	1.35	1.01	0.343	1.03	0.309	3.63	1.06	1.14	1.17	1.06
